Patent US20200109182A1, “GLP-1 ANALOG FUSION PROTEIN AND PREPARATION METHOD AND APPLICATION THEREOF” (JIANGSU T-MAB BIOPHARMA CO., LTD, priority 2013, published 2020)

Target: GLP-1 receptor (GLP-1R) on CHO DG44 2-A4-2-A8 cells
Assay: cell-based or functional assay

EC50 (CRE-luciferase reporter, test NO. 1): 0.75 nM
EC50 (CRE-luciferase reporter, test NO. 2): 0.368 nM
EC50 (CRE-luciferase reporter, test NO. 3): 0.364 nM
Substance: GLP-1 (7-37) (Val^8-GLP-1 (7-37)) (from UniProt P01275 27-57) (peptide)
